From patent US20230039401A1, “COMPOSITIONS AND METHODS FOR TREATING NRP2-ASSOCIATED DISEASES” (aTyr Pharma, Inc., priority 2018, published 2023)
Entries after “also recorded” stand apart in the source; their conditions may differ.

Key:
[1] = biological target: T1, NRP2:Fc-HRS(2-60) interaction (Homo sapiens, UniProt O60462); experiment: SPR competition of known NRP2 ligands with the NRP2:Fc-HRS(2-60) interaction; type: binding; conditions: for effect of ligand on binding of NRP2 to Fc-HRS(2-60) (SPR): NRP2 in the presence of the ligand over immobilized Fc-HRS(2-60); for Competes with Fc-HRS(2-60) for NRP2 binding: SPR, NRP2 binding to immobilized Fc-HRS(2-60) in presence of ligand
T1 construct: Fc (C); purchased R&D Systems 2215-N2
Procedure: (§1) Protein-Protein Interaction studies. […] SPR experiments were conducted on a Bio-Rad ProteOn XPR36 Protein Interaction Array instrument. Proteins were immobilized on different channels of ProteOn GLC sensor chips through amine coupling. Analyte proteins were flowed over the immobilized proteins. The sensor chip surface was regenerated between each analyte run to remove interacting proteins. Data was double referenced against an interspot (untreated chip surface) and a blank surface (activated and deactivated for amine coupling).
Studies were performed to confirm the binding specificity of Neuropilin 2 (NRP2) to Fc-HRS(2-60) using orthologous methods to those used in the large scale Retrogenix screening (Example 1). In a series of experiments, Fc-HRS(2-60) and related proteins were immobilized on SPR chips, and NRP2 and related proteins were flowed as analytes. Upon confirmation of the NRP2:Fc-HRS(2-60) interaction, the dependence on divalent cations was tested as NRP2 is known to have Ca^2+ binding sites. The effects of previously characterized NRP2 ligands on the NRP2: Fc-HRS(2-60) interaction was also tested to determine if these known ligands have competitive effects on the Fc-HRS(2-60) interaction.
(§2) A subset of the known ligands of NRP2 appears to compete binding of Fc-HRS(2-60) to NRP2.

NRP2 = biological target: T2, NRP2 (Homo sapiens, UniProt O60462); experiment: SPR binding of known ligands to NRP2; conditions: for binding of ligand to NRP2: applicant's system; for Binding to NRP2 observed by SPR: known NRP2 ligands
T2 construct: Fc (C); purchased R&D Systems 2215-N2
Procedure: as §1, §2

[2] = biological target: T3, cell-expressed NRP2 (NRP2a-GFP fusion protein on HEK293T cells) (Homo sapiens, UniProt O60462); experiment: Immunofluorescence binding of Fc-HRS (2-60) to HEK293T cells overexpressing NRP2v2-GFP; conditions: 175 nM Fc-HRS (2-60)/anti-Fc-PE; pre-incubation with the test agent
T3 construct: host or cells: HEK293T
Procedure: Reagents: • PE anti-human IgG Fc Antibody, clone HP6017, Biolegend cat 409304 • Mouse Anti-HRS monoclonal antibody (1-96) Clone 1C8, Abnova cat H00003035-M01 • Mouse IgG2a, Isotype control antibody (MOPC-173), Biolegend cat 400223 • Recombinant Human VEGF-C Protein, R&D Systems, cat 2179-VC-025/CF • Formaldehyde, 16%, methanol free, Ultra Pure, Polysciences, cat 18814-10 • Hoechst 33342, Trihydrochloride, Trihydrate, ThermoFisher Scientific, cat H1399 • Fc-HRS (2-60) was prepared as described in PCT application PCT/US2014/029699 • Gibco DMEM, High Glucose, ThermoFisher Scientific, cat 11965092 • PolyJet™ In Vitro DNA Transfection Reagent, SignaGen, cat SL100688 • Neuropilin 2 (NRP2) (NM_003872) Human ORF Clone, Origene, cat RG220706 • Collagen Coating Solution, Cell Applications Cat 125-100 • 1×PBS containing 1% BSA, 0.9 mM CaCl2 and 20 mM glucose • Binding buffer containing 1% normal mouse IgG (sigma cat 18765) and 2.5% (Human Fc Receptor Binding Inhibitor, ebioscience 14-9161-73).
Cell culture and transfection. […]
Immunofluorescence assays on cultured cells. Binding and quantitation of Fc-HRS (2-60) to cell-expressed NRP2 was achieved using immunofluorescence microscopy. […] The Hoechst stain was replaced with 1×PBS and subsequently read on an IN Cell Analyzer 2200. 20× images were acquired and analyzed using In Cell Analyzer 1000 Workstation software. […]

B1: VEGF-A145: commercial protein (R&D Systems #7626-VE-CF) (protein)
chain: APMAEGGGQNHHEVVKFMDVYQRSYCHPIETLVDIFQEYPDEIEYIFKPSCVPLMRCGGCCNDEGLECVPTEESNITMQIMRIKPHQGQHIGEMSFLQHNKCECRPKKDRARQEKKSVRGKGKGQKRKRKKSRYKSWSVCDKPRR
In the case of B1, the “effect of ligand on binding of NRP2 to Fc-HRS(2-60) (SPR)” value (“effect of ligand on binding of NRP2” below) [1] is reported as “unaffected”, the “Competes with Fc-HRS(2-60) for NRP2 binding” value (“Competes” for short) [1] is reported as “No” and the “binding of ligand to NRP2” value (NRP2) is reported as “does not bind NRP2 in our system”. For the same molecule, the “Binding to NRP2 observed by SPR” value (NRP2) was “No”.

B2: VEGF-C: commercial NRP2 ligand protein (R&D Systems) (protein)
chain: TEETIKFAAAHYNTEILKSIDNEWRKTQCMPREVCIDVGKEFGVATNTFFKPPCVSVYRCGGCCNSEGLQCMNTSTSYLSKTLFEITVPLSQGPKPVTISFANHTSCRCMSKLDVYRQVHSIIRR
In the case of B2, the “inhibition of Fc-HRS (2-60) binding to cells expressing NRP2a-GFP” value [2] is reported as “binding inhibition; also recorded: direct competition”, the “effect of ligand on binding of NRP2” value [1] is reported as “reduced or ablated” and the “Competes” value [1] is reported as “Yes”. For the same molecule, the “Binding to NRP2 observed by SPR” value (NRP2) was “Yes”.

B3: VEGF-A121: commercial protein (Peprotech #100-20A) (protein)
chain: APMAEGGGQNHHEVVKFMDVYQRSYCHPIETLVDIFQEYPDEIEYIFKPSCVPLMRCGGCCNDEGLECVPTEESNITMQIMRIKPHQGQHIGEMSFLQHNKCECRPKKDRARQEKCDKPRR
For B3, the “effect of ligand on binding of NRP2” value [1] was “unaffected”, the “Competes” value [1] was “No” and the “binding of ligand to NRP2” value (NRP2) was “does not bind”. The “Binding to NRP2 observed by SPR” value (NRP2) was “No”.

B4: mouse SEMA3F: commercial protein (R&D Systems #3237-S3) (protein)
chain: ATPIQDQLPATPRVRLSFKELKATGTAHFFNFLLNTTDYRILLKDEDHDRMYVGSKDYVLSLDLHDINREPLIIHWAASPQRIEECILSGKDGNGECGNFVRLIQPWNRTHLYVCGTGAYNPMCTYVNRGRRAQALPWTQMQVVRGRGSRATDGADRPTPTAPRQDYIFYLEPEKLESGKGKCPYDPKLDTASALINEELYAGVYIDFMGTDAAIFRTLGKQTAMRTDQYNSRWLNDPSFIHAELIPDSAERNDDKLYFFFRERSAEAPQNPAVYARIGRICLNDDGGHCCLVNKWSTFLKARLVCSVPGEDGIETHFDELQDVFVQQTQDVRNPVIYAVFTSSGSVFRGSAVCVYSMADIRMVFNGPFAHKEGPNYQWMPFSGKMPYPRPGTCPGGTFTPSMKSTKDYPDEVINFMRTHPLMYQAVYPLQRRPLVVRTGAPYRLTTVAVDQVDAADGRYEVLFLGTDRGTVQKVIVLPKDDQEVEELMLEEVEVFKEPAPVKTMTISSKRQQLYVASAVGVTHLSLHRCQAYGAACADCCLARDPYCAWDGQACSRYTASSKRRSRRQDVRHGNPIRQCRGFNSNANKNAVESVQYGVAGSAAFLECQPRSPQATVKWLFQRDPSDRRREIRAEDRFLRTEQGLLLRALQLGDRGLYSCTATENNFKHIVTRVQLHVLGRDAVHAALFPPLAVSVPPPPGTGPPTPPYQELAQLLAQPEVGLIHQYCQGYWRHVPPRPREAPGALRPPELQDQKKPRNRRHHPPDT
modifications: left off: a dimerising Fc or GST
B4 was tested, and the “effect of ligand on binding of NRP2” value [1] was “do not affect”, the “Competes” value [1] was “No” and the “binding of ligand to NRP2” value (NRP2) was “do bind”. The “Binding to NRP2 observed by SPR” value (NRP2) was “Yes”.

B5: PlGf-2/Heparin (protein)
chain: LPAVPPQQWALSAGNGSSEVEVVPFQEVWGRSYCRALERLVDVVSEYPSEVEHMFSPSCVSLLRCTGCCGDENLHCVPVETANVTMQLLKIRSGDRPSYVELTFSQHVRCECRPLREKMKPERRRPKGRGKRRREKQRPTDCHLCGDAVPRR
In the case of B5, the “Competes” value [1] is reported as “Yes”.

B6: SEMA3C: commercial protein (R&D Systems #5570-S3) (protein)
chain: GSSQPQARVYLTFDELRETKTSEYFSLSHHPLDYRILLMDEDQDRIYVGSKDHILSLNINNISQEALSVFWPASTIKVEECKMAGKDPTHGCGNFVRVIQTFNRTHLYVCGSGAFSPVCTYLNRGRRSEDQVFMIDSKCESGKGRCSFNPNVNTVSVMINEELFSGMYIDFMGTDAAIFRSLTKRNAVRTDQHNSKWLSEPMFVDAHVIPDGTDPNDAKVYFFFKEKLTDNNRSTKQIHSMIARICPNDTGGLRSLVNKWTTFLKARLVCSVTDEDGPETHFDELEDVFLLETDNPRTTLVYGIFTTSSSVFKGSAVCVYHLSDIQTVFNGPFAHKEGPNHQLISYQGRIPYPRPGTCPGGAFTPNMRTTKEFPDDVVTFIRNHPLMYNSIYPIHKRPLIVRIGTDYKYTKIAVDRVNAADGRYHVLFLGTDRGTVQKVVVLPTNNSVSGELILEELEVFKNHAPITTMKISSKKQQLYVSSNEGVSQVSLHRCHIYGTACADCCLARDPYCAWDGHSCSRFYPTGKRRSRRQDVRHGNPLTQCRGFNLKAYRNAAEIVQYGVKNNTTFLECAPKSPQASIKWLLQKDKDRRKEVKLNERIIATSQGLLIRSVQGSDQGLYHCIATENSFKQTIAKINFKVLDSEMVAVVTDKWSPWTWASSVRALPFHPKDIMGAFSHSEMQMINQYCKDTRQQHQQGDESQKMRGDYGKLKALINS
modifications: left off: a dimerising Fc or GST
In the case of B6, the “effect of ligand on binding of NRP2” value [1] is reported as “do not affect”, the “Competes” value [1] is reported as “No” and the “binding of ligand to NRP2” value (NRP2) is reported as “do bind”. For the same molecule, the “Binding to NRP2 observed by SPR” value (NRP2) was “Yes”.
